Experimental findings from the supplement of paper PMC9112550, “Optimization of the antimicrobial peptide Bac7 by deep mutational scanning” (BMC Biology, 2022) are described below.

For this data set, the system named is Escherichia coli TOP10. Put plainly: shrunken log2 fold change of peptide-encoding DNA abundance (4.5 h post-induction vs induction); higher = less antimicrobial activity (less host growth inhibition). To be noted: time post-induction: 4.5 h; library: site-saturation at positions 5, 18, 19, 20.
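Further: peptides expressed intracellularly from a pBAD plasmid library in pooled LB shake-flask culture, induced with 0.3% L-arabinose, DNA abundance read by NGS, three biological replicates, DESeq2 with apeglm shrinkage.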

Turning to RRIRRRPPRLPRPRPRPELMPRP, the “shrunken log2 fold change” value worked out at 0.0537.

Take RRIRARPPRLPRPRPRPAVRPRP: the “shrunken log2 fold change” value amounted to 0.545.

RRIRIRPPRLPRPRPRPVVAPRP: the “shrunken log2 fold change” value is -0.0606.

On to RRIRTRPPRLPRPRPRPGGVPRP, for which the “shrunken log2 fold change” value came to 0.346.

As for RRIRWRPPRLPRPRPRPKNQPRP, the “shrunken log2 fold change” value amounted to 0.123.

On to RRIRWRPPRLPRPRPRPSVEPRP, for which the “shrunken log2 fold change” value was found to be 0.172.

In the case of RRIRVRPPRLPRPRPRPMRAPRP, the “shrunken log2 fold change” value stood at 0.71.

On to RRIRARPPRLPRPRPRPGVRPRP, for which the “shrunken log2 fold change” value was found to be 0.797.

For RRIRQRPPRLPRPRPRPAVGPRP, the “shrunken log2 fold change” value came to 0.0738.

For the sequence RRIRKRPPRLPRPRPRPFSKPRP, the “shrunken log2 fold change” value was -0.0535.

For the sequence RRIRCRPPRLPRPRPRPYGNPRP, the “shrunken log2 fold change” value was -0.277.

Take RRIRFRPPRLPRPRPRPLDNPRP: the “shrunken log2 fold change” value came out at 0.0244.

For the sequence RRIRYRPPRLPRPRPRPTHDPRP, the “shrunken log2 fold change” value was determined as 0.032.

Take RRIRPRPPRLPRPRPRPPMFPRP: the “shrunken log2 fold change” value worked out at 0.0198.

As to RRIRARPPRLPRPRPRPFLQPRP, the “shrunken log2 fold change” value was 0.123.

RRIRMRPPRLPRPRPRPIYEPRP: the “shrunken log2 fold change” value is -0.0231.

Regarding RRIRHRPPRLPRPRPRPVAIPRP, the “shrunken log2 fold change” value amounted to 2.06.

With RRIRYRPPRLPRPRPRPGVKPRP, the “shrunken log2 fold change” value was -0.188.

With RRIRIRPPRLPRPRPRPLCMPRP, the “shrunken log2 fold change” value was -0.964.

With RRIRMRPPRLPRPRPRPLRLPRP, the “shrunken log2 fold change” value is 0.959.

For RRIRMRPPRLPRPRPRPQQRPRP, the “shrunken log2 fold change” value was determined as 0.586.

Consider RRIRSRPPRLPRPRPRPIPSPRP, for which the “shrunken log2 fold change” value was -0.00523.

Regarding RRIRPRPPRLPRPRPRPKWWPRP, the “shrunken log2 fold change” value came out at 0.235.

Turning to RRIRMRPPRLPRPRPRPSIGPRP, the “shrunken log2 fold change” value is -0.00737.

For RRIRHRPPRLPRPRPRPQPKPRP, the “shrunken log2 fold change” value worked out at 0.24.

As to RRIRMRPPRLPRPRPRPMCPPRP, the “shrunken log2 fold change” value is -0.00088.

On to RRIRIRPPRLPRPRPRPMHQPRP, for which the “shrunken log2 fold change” value is -0.121.

Regarding RRIRVRPPRLPRPRPRPYEVPRP, the “shrunken log2 fold change” value turned out to be 0.0284.

Consider RRIRDRPPRLPRPRPRPDCDPRP, for which the “shrunken log2 fold change” value amounted to 0.122.

For the sequence RRIRNRPPRLPRPRPRPAPVPRP, the “shrunken log2 fold change” value is 0.406.

As to RRIRIRPPRLPRPRPRPPAWPRP, the “shrunken log2 fold change” value amounted to 0.146.

As to RRIRMRPPRLPRPRPRPMEDPRP, the “shrunken log2 fold change” value was determined as 0.0119.

Regarding RRIRKRPPRLPRPRPRPCYVPRP, the “shrunken log2 fold change” value is -0.69.

RRIRCRPPRLPRPRPRPEIAPRP: the “shrunken log2 fold change” value is 0.193.

In the case of RRIRDRPPRLPRPRPRPNGIPRP, the “shrunken log2 fold change” value came out at 0.012.

Regarding RRIRARPPRLPRPRPRPMGCPRP, the “shrunken log2 fold change” value was found to be 0.495.

With RRIRQRPPRLPRPRPRPAWCPRP, the “shrunken log2 fold change” value turned out to be 0.0518.

On to RRIRKRPPRLPRPRPRPDRLPRP, for which the “shrunken log2 fold change” value was -0.038.

Turning to RRIRYRPPRLPRPRPRPWDEPRP, the “shrunken log2 fold change” value is -0.999.

For RRIRPRPPRLPRPRPRPEPRPRP, the “shrunken log2 fold change” value stood at 1.05.

RRIRCRPPRLPRPRPRPSYDPRP: the “shrunken log2 fold change” value is -0.428.

For RRIRARPPRLPRPRPRPQFTPRP, the “shrunken log2 fold change” value came out at 0.0535.

In the case of RRIRVRPPRLPRPRPRPKNVPRP, the “shrunken log2 fold change” value was -0.0901.

On to RRIRIRPPRLPRPRPRPRRPPRP, for which the “shrunken log2 fold change” value was determined as 0.233.

Consider RRIRDRPPRLPRPRPRPEDGPRP, for which the “shrunken log2 fold change” value turned out to be 0.316.

With RRIRIRPPRLPRPRPRPNHVPRP, the “shrunken log2 fold change” value was -0.278.

In the case of RRIRFRPPRLPRPRPRPHSPPRP, the “shrunken log2 fold change” value is -0.389.

Consider RRIRMRPPRLPRPRPRPISMPRP, for which the “shrunken log2 fold change” value stood at 0.0246.

With RRIRKRPPRLPRPRPRPMRGPRP, the “shrunken log2 fold change” value came out at 0.874.

Turning to RRIRFRPPRLPRPRPRPMSDPRP, the “shrunken log2 fold change” value was -0.103.

As for RRIRLRPPRLPRPRPRPWHAPRP, the “shrunken log2 fold change” value was -0.194.

On to RRIRDRPPRLPRPRPRPGGWPRP, for which the “shrunken log2 fold change” value was determined as 0.975.

As to RRIRNRPPRLPRPRPRPKTNPRP, the “shrunken log2 fold change” value came to 0.0551.

For the sequence RRIRMRPPRLPRPRPRPLTMPRP, the “shrunken log2 fold change” value turned out to be 0.24.

On to RRIRPRPPRLPRPRPRPVNGPRP, for which the “shrunken log2 fold change” value worked out at 0.0391.

Consider RRIRMRPPRLPRPRPRPEWFPRP, for which the “shrunken log2 fold change” value stood at 0.0369.

Turning to RRIRFRPPRLPRPRPRPYTGPRP, the “shrunken log2 fold change” value was -0.0357.

On to RRIRLRPPRLPRPRPRPAGFPRP, for which the “shrunken log2 fold change” value is 0.46.

For the sequence RRIRDRPPRLPRPRPRPTPYPRP, the “shrunken log2 fold change” value is -0.13.

Take RRIRIRPPRLPRPRPRPGDRPRP: the “shrunken log2 fold change” value was -0.123.

RRIRCRPPRLPRPRPRPNTQPRP: the “shrunken log2 fold change” value is -0.0903.

In the case of RRIRHRPPRLPRPRPRPPGFPRP, the “shrunken log2 fold change” value is 0.011.

For RRIRKRPPRLPRPRPRPVENPRP, the “shrunken log2 fold change” value came to 0.198.

As for RRIRVRPPRLPRPRPRPCLEPRP, the “shrunken log2 fold change” value stood at 0.0452.

Turning to RRIRERPPRLPRPRPRPYFVPRP, the “shrunken log2 fold change” value was -0.892.

Take RRIRYRPPRLPRPRPRPSRNPRP: the “shrunken log2 fold change” value was -0.12.

RRIRTRPPRLPRPRPRPQCMPRP: the “shrunken log2 fold change” value is -0.133.

As to RRIRWRPPRLPRPRPRPEDTPRP, the “shrunken log2 fold change” value is -0.0372.

Consider RRIRVRPPRLPRPRPRPAWGPRP, for which the “shrunken log2 fold change” value was determined as 0.515.

As for RRIRYRPPRLPRPRPRPADTPRP, the “shrunken log2 fold change” value was -0.00151.

As to RRIRNRPPRLPRPRPRPFKMPRP, the “shrunken log2 fold change” value was -0.258.

Take RRIRWRPPRLPRPRPRPDFFPRP: the “shrunken log2 fold change” value amounted to 0.204.

Regarding RRIRSRPPRLPRPRPRPAFRPRP, the “shrunken log2 fold change” value worked out at 0.452.

RRIRNRPPRLPRPRPRPCCCPRP: the “shrunken log2 fold change” value was -0.0783.

Turning to RRIRHRPPRLPRPRPRPLILPRP, the “shrunken log2 fold change” value turned out to be 0.0886.

Consider RRIRNRPPRLPRPRPRPAQQPRP, for which the “shrunken log2 fold change” value came out at 0.017.

Consider RRIRQRPPRLPRPRPRPARAPRP, for which the “shrunken log2 fold change” value came to 1.22.

Regarding RRIRHRPPRLPRPRPRPAWLPRP, the “shrunken log2 fold change” value is 0.163.

With RRIRFRPPRLPRPRPRPQPCPRP, the “shrunken log2 fold change” value turned out to be 0.078.

As to RRIRNRPPRLPRPRPRPNVYPRP, the “shrunken log2 fold change” value was -0.17.

On to RRIRCRPPRLPRPRPRPERQPRP, for which the “shrunken log2 fold change” value is -0.00823.

As for RRIRMRPPRLPRPRPRPIVYPRP, the “shrunken log2 fold change” value was 0.00317.

Consider RRIRFRPPRLPRPRPRPIRLPRP, for which the “shrunken log2 fold change” value is 0.0615.

RRIRCRPPRLPRPRPRPRIMPRP: the “shrunken log2 fold change” value was -0.293.

Consider RRIRTRPPRLPRPRPRPMAKPRP, for which the “shrunken log2 fold change” value was determined as 0.0153.

On to RRIRNRPPRLPRPRPRPPIDPRP, for which the “shrunken log2 fold change” value was -0.306.

With RRIRKRPPRLPRPRPRPWQFPRP, the “shrunken log2 fold change” value was determined as 0.157.

On to RRIRHRPPRLPRPRPRPNVLPRP, for which the “shrunken log2 fold change” value was -0.0715.

Turning to RRIRKRPPRLPRPRPRPIKRPRP, the “shrunken log2 fold change” value was found to be 0.0734.

Take RRIRLRPPRLPRPRPRPVKFPRP: the “shrunken log2 fold change” value is -0.316.

As to RRIRGRPPRLPRPRPRPFVPPRP, the “shrunken log2 fold change” value turned out to be 0.0587.

With RRIRTRPPRLPRPRPRPHMVPRP, the “shrunken log2 fold change” value is 0.00159.

On to RRIRIRPPRLPRPRPRPIVCPRP, for which the “shrunken log2 fold change” value came out at 0.000993.

On to RRIRCRPPRLPRPRPRPSFLPRP, for which the “shrunken log2 fold change” value was -0.718.

In the case of RRIRWRPPRLPRPRPRPGPRPRP, the “shrunken log2 fold change” value turned out to be 0.514.

Regarding RRIRSRPPRLPRPRPRPDCLPRP, the “shrunken log2 fold change” value is -0.11.

As for RRIRQRPPRLPRPRPRPSCKPRP, the “shrunken log2 fold change” value was -0.259.

With RRIRSRPPRLPRPRPRPPCQPRP, the “shrunken log2 fold change” value was -0.0943.

Consider RRIRLRPPRLPRPRPRPQKNPRP, for which the “shrunken log2 fold change” value is -0.154.

For the sequence RRIRSRPPRLPRPRPRPEHSPRP, the “shrunken log2 fold change” value is -0.182.

As to RRIRTRPPRLPRPRPRPRDEPRP, the “shrunken log2 fold change” value amounted to 0.146.

Turning to RRIRDRPPRLPRPRPRPRTPPRP, the “shrunken log2 fold change” value is 0.17.

Regarding RRIRVRPPRLPRPRPRPYSFPRP, the “shrunken log2 fold change” value is -0.594.

For RRIRYRPPRLPRPRPRPRQHPRP, the “shrunken log2 fold change” value is -0.571.

Take RRIRLRPPRLPRPRPRPSPDPRP: the “shrunken log2 fold change” value was 0.164.

Consider RRIRVRPPRLPRPRPRPLRRPRP, for which the “shrunken log2 fold change” value amounted to 0.644.

Take RRIRCRPPRLPRPRPRPQSGPRP: the “shrunken log2 fold change” value is -0.142.

Consider RRIRPRPPRLPRPRPRPLVCPRP, for which the “shrunken log2 fold change” value was 0.272.

For the sequence RRIRWRPPRLPRPRPRPQPKPRP, the “shrunken log2 fold change” value is 0.294.

As to RRIRFRPPRLPRPRPRPCWTPRP, the “shrunken log2 fold change” value was -0.323.

In the case of RRIRERPPRLPRPRPRPISCPRP, the “shrunken log2 fold change” value was -0.705.

With RRIRVRPPRLPRPRPRPFECPRP, the “shrunken log2 fold change” value was -0.0624.

For the sequence RRIRIRPPRLPRPRPRPINLPRP, the “shrunken log2 fold change” value is -0.146.

Regarding RRIRARPPRLPRPRPRPMDFPRP, the “shrunken log2 fold change” value turned out to be 2.73.

Take RRIRRRPPRLPRPRPRPPQLPRP: the “shrunken log2 fold change” value is 1.02.

For RRIRERPPRLPRPRPRPVMLPRP, the “shrunken log2 fold change” value stood at 0.055.

Regarding RRIRPRPPRLPRPRPRPIPAPRP, the “shrunken log2 fold change” value came out at 0.342.

In the case of RRIRTRPPRLPRPRPRPFLWPRP, the “shrunken log2 fold change” value worked out at 0.189.

RRIRYRPPRLPRPRPRPDAAPRP: the “shrunken log2 fold change” value turned out to be 0.294.

As for RRIRKRPPRLPRPRPRPCRKPRP, the “shrunken log2 fold change” value stood at 0.0153.

Regarding RRIRQRPPRLPRPRPRPNGMPRP, the “shrunken log2 fold change” value is -0.0839.

Consider RRIRCRPPRLPRPRPRPNWLPRP, for which the “shrunken log2 fold change” value was -0.115.

For RRIRVRPPRLPRPRPRPVLTPRP, the “shrunken log2 fold change” value was found to be 0.146.

Take RRIRPRPPRLPRPRPRPVETPRP: the “shrunken log2 fold change” value was -0.158.

Take RRIRPRPPRLPRPRPRPYPSPRP: the “shrunken log2 fold change” value is -0.65.
